assay: soluble on expression in E. coli; label from the status in PepcDB or PDB records

| Sequence | soluble on expression in E. coli |
| --- | --- |
| VSIDSSRRIIQAIEQNEFHLYCQKIIPAGSNQESSSYYEVLIRMAEEESNLIPPGAFLPFVEKYNLMPRLDSWVVEQVIHYLADQRADPRISFCINLARSTLIDPVFYDRVWKLLNAAGIEPQRICFEIETADVAANLLSAVQFVKKVQQSGCLVSLCSFNHDRGSFDLLKHIQADFLKIDGSLICNILRDAEDLKKVENIGKFARALKIRTIGELVETRNILEKLAKIGIDYAQGFIVGRPLPIEKIEYRADSMDDL | not soluble |
| MSLDDSYRIRHIVVKDEEEAREVLKELKGGSSFEAVAAERSTDRYTSPYGGDLGFVTEASDNIPSAYIEEAKTLKEDEWSQEPIKVSNGYAIIQLKEKLKARTFSFDEVKDQIRRQIAMDQLGDKATVKTLWKEADVSWFYGEKSTKEGHHHHHH | soluble |
| MVRFFIGKEMLFDSHLHLDQLSDENIQQTLAHSKIIGMLAVSTNLNSAKKLLNLKQTYPKKLYIAAGFHPEQQLPSLEEQKKLFQWIDEHHSSISAIGEVGLPHYSKRENPNLDYVPYIELLERFILIAKKWDLPLNLHIVHNDVEIALELLQKHNIQRAHFHWFKTDEKSFQKFFSTPYFASLTPDILWNSKTQYVAQHLSLNRLMIETDSPWQHEGFERAGISEQLLAVLQKLAELKSLPLHSVQKQILLNTQQFYRLLEHHHHHH | not soluble |
| MIYNKTINGLKVFIKDNDPFYEQVLNDFLTCRVKTLKVFRSIDDTKVILIDTARGPLVLKVYAPKHKMTERFLKSCIKKDYYENLIYQTDRVRGEGIQSINDYFLLAERKTLNFAHYYIMLIEYIEGVGLNEYLEISEDLKDQLSESIKELHQHGMVSGDPHKGNFIVSEKGLRLIDLSGKKTTAVLKAKDRIDLERHYNIKNELKDFGYTYLIFKKKIKKVIRDVKVKLGLKSKLEHHHHHH | not soluble |
| MGSHHHHHHRTPSDKPVAHVVANPQAEGQLQWLNRRANALLANGVELRDNQLVVPSEGLYLIYSQVLFKGQGCPSTHVLLTHTISRIAVSYQTKVNLLSAIKSPCQRETPEGAEAKPWYEPIYLGGVFQLEKGDRLSAEINRPDYLLFAESGQVYFGIIAL | soluble |
| LSKPKLAVVGARKCSETGKQSVRKIVHELGNAFTIVSGLARGIDTCAHMEALKNKGNTIAVIGTGLDVYYPKENKALQDYMAKNHLVLTEYGPGEQPLKYHYPERNRIISGLCQGVMVVEAKLRSGSLITCERAMEEGRDVFAIPGNILDGKSDGCHHLIQEGAKCITTGFDIISEFS | not soluble |
| MGSDKIHHHHHHMKKPFLHSESAADVGMEIQQSYDRLLETTRKWIDILHFDPLLETGLTPRDIVWRKNKSRLYRYVNHKGYKHRTPILMLYALINKAYILDLRPGMSLVEYLVDQGFDVYLLDWGEFDWEDRDLSFSQLIVDYISRAVYKVCQYSNVNELSILGYCMGGTMATMYASLYPQPRIKNMIYVAAPIDFEDAGLSSIWLKASVFDVDKVTDTFSLIPKEFVDLGLKMLNPVNNFVATYTRLWKAIDEGVSIEAWKALNKWVDDNINFPGKAYREWVKYLYQENALVKDEFIINGRKVVLSNIDAALLVLTGKTDHIVLPQQSTPILELSSSQDKTNLQYPVGHGGLVFGSRARNEVYPTIAEWLAQRS | not soluble |
| MKIHPTAIIDPKAELHESVEVGPYSIIEGNVSIQEGTIIEGHVKICAGSEIGKFNRFHQGAVIGVMPQDLGFNQQLLTKTVIGDHNIFREYSNIHKGTKEDSPTVIGNKNYFMGNSHVGHDCILGNNNILTHGAVLAGHVTLGNFAFISGLVAVHQFCFVGDYSMVAGLAKVVQDVPPYSTVDGNPSTVVGLNSVGMKRAGFSPEVRNAIKHAYKVIYHSGISTRKALDELEASGNLIEQVKYIIKFFRDSDRGVTNHR | soluble |
| MNLLEKTRKINAMLQKAAGRPVNFKEMAETLCEVIEANVFVVSRRGKLLGFAIKQSIENERMKRMLEERQFPEEYTKNLFNITETSPNIDINSEYTAFPVENRDLFKTGLTTIVPINGGGERLGTLILSRLDREFDNDDLILAEYGATVVGMEILREKAEEIEEEARSKAVVQMAISSLSYSELEAIEHIFEELDGTEGLLVASKIADRVGITRSVIVNALRKLESAGVIESRSLGMKGTYIKVLNDKFLSELEKLKSS | not soluble |
| MAFVLNGQDLDALATGGCFFGSGGGGTLSSAKGLLRHFNKGAYYPADQVTVVTVDEAVSAAEGDAVMVAYMGSPQAINGSSYPEGPVGAAENIQGKLATQGRKLAYIVPPESGALGFVVACLVAVRLGLKVIDADGAGRAVPSLPMLTYAAAAISPRPAVLVSQEGLQVELDVTPRDGENGSVTHQQDVAAIIENMMRPIVAAAQFKEFGGLAMWVMAPEQFSAALPIHGTLSRAVKTGHALAAGELDTAARMQDFLKRESGLLARPIFTGQFKAVEVSTGAGFDVGKMHIVSAEATCTVVYQNESMLAWDSRAAAPLVTAPDSLAYFVSGPGQSVYSNGDAVLADGTLSPSLKDRTVTLFAWQADAALRTPDGQILASFMGLLADMGYLGPYISVEAMQLATAGESRPLEHHHHHH | not soluble |
| MGTKREKDSLAFLLNSGARLLNNAFERRISEAGLGLTPGEARALLTVAVVDGSKQSDIAARLGIEPMTICAYLDKLQSLDLIERQQDPQDRRSKRIVLTKNSTDMLEAVRQEIDELVRHATRGLNEDEVALFRSFLQTLRDNLQPEQPGQSC | soluble |
| MCTKNETKPLPSFIEERLNFHIQDLIKSNENQKHLVLGKRPSENAVVMQSNDYLSLSHNELIQKAHRDAISERDDNVVMSAIFLQDDQSKPAFEHQLATFVGMESCLLSQSGWAANIGLLQTICAPNLPVYIDFFAHMSLWEGARTAGAQIHPFMHNNMNHLRKQIQRHGAGIIVVDSVYSTIGTIAPLRAIYEMAKEFDCGLVVDESHSLGTHGPEGSGLLQKLGLTQMVDFVTVSLAKTFAYRAGAILGPNKLAQSLPFVAYPAIFSSTVLPQEVVRLEKTLEVIKAADDKRECLFKRAKELAIGLKRIGFNIRSESQIIALECGSERNTERVRDFLEERDVFGAVFCRPATGRNKNIIRFSVNADMTAQQVDHVLSACQEAFDHPDLEFV | not soluble |
| MGHHHHHHSHEVIKGSWQPVGDLLIDSLQDHLEKVKALRGEIAPLKENVSHVNDLARQLTTLGIQLSPYNLSTLEDLNTRWKLLQVAVEDRVRQLHEAHRDFGPASQHFLSTSVQGPWERAISPNKVPYYINHETQTTCWDHPKMTELYQSLADLNNVRFSAYRTAMKLRRLQKALCLDLLSLSAACDALDQHNLKQNDQPMDILQIINCLTTIYDRLEQEHNNLVNVPLCVDMCLNWLLNVYDTGRTGRIRVLSFKTGIISLCKAHLEDKYRYLFKQVASSTGFCDQRRLGLLLHDSIQIPRQLGEVASFGGSNIEPSVRSCFQFANNKPEIEAALFLDWMRLEPQSMVWLPVLHRVAAAETAKHQAKCNICKECPIIGFRYRSLKHFNYDICQSCFFSGRVAKGHKMHYPMVEYCTPTTSGEDVRDFAKVLKNKFRTKRYFAKHPRMGYLPVQTVLEGDNMETPVTLINFWPVDSAPAS | not soluble |
| MGSDKIHHHHHHMVDNPGNLNSFRALALQVTCHAVNQASDRQEAGLMMHNTINRLAQQIAASIAFIGFDCRLIVLPEYFLTGFPMGEPLQVWADKACLEINGAEYEALGMIAQKQQIFLAGNAYELDPNFPGLYFQTCFVIDPSGSVVLRYRRLNSLFAPTPHDVWDKYLDCYGLEGVFPVAKTAIGNLAALASEEILYPEVARCLAMRGAEIFLHSTSEVYSKNLTPKDAAKITRAVENMAYVVSANSAGLANSAIPIGSVDGGSKIIDHRGIILAETGPGESMAAFAEIDLAALRRDRTRPGLNNLLSRQRFEMYAQSYSQAKFYPANTMLNKEIERKHFIQTQQETIERLTRLGII | not soluble |
| MVHSTDSFDFLGWNFVVKPNGKFISTPSQKATSSIKAKVKEVMKDSCFTLEERIDKCGAIVRGWRNYHRFCDMSQHNLWAIAYWTWKFIRKQGRYNRDQTNQVIHRAFPAVKWAACRFNNVTEDKSPLEHHHHHH | not soluble |
